In patent publication US20240076403A1 (SIMCERE ZAIMING PHARMACEUTICAL, published 2024):

B1: Tab048 (FRP5 human IgG1) (antibody, V domains shown)
VH: QVQLQQSGPELKKPGETVKISCKASGYPFTNYGMNWVKQAPGQGLKWMGWINTSTGESTFADDFKGRFDFSLETSANTAYLQINNLKSEDMATYFCARWEVYHGYVPYWGQGTTVTVSS
VL: DIQLTQSHKFLSTSVGDRVSITCKASQDVYNAVAWYQQKPGQSPKLLIYSASSRYTGVPSRFTGSGSGPDFTFTISSVQAEDLAVYFCQQHFRTPFTFGSGTKLEIKR
notes: control antibody, human IgG1
B2: Tab048 (FRP5 human IgG1) (antibody, V domains shown)
VH: B1 VH
VL: B1 VL
notes: Control antibody in human IgG1 form
B3: Tab050 (2C4 human IgG1, Pertuzumab) (antibody, V domains shown)
VH: EVQLVESGGGLVQPGGSLRLSCAASGFTFTDYTMDWVRQAPGKGLEWVADVNPNSGGSIYNQRFKGRFTLSVDRSKNTLYLQMNSLRAEDTAVYYCARNLGPSFYFDYWGQGTLVTVSS
VL: DIQMTQSPSSLSASVGDRVTITCKASQDVSIGVAWYQQKPGKAPKLLIYSASYRYTGVPSRFSGSGSGTDFTLTISSLQPEDFATYYCQQYYIYPYTFGQGTKVEIKR
notes: control antibody, human IgG1

Experiments:
[1] = target: T1, monkey HER2-His protein (Sino Biological, Cat. No. 90295-C08H) (monkey); experiment: ELISA, 10 nM
T1 construct: also called monkey HER2 protein

[2] = target: T1, monkey HER2-His protein (Sino …); experiment: ELISA, 0.00001 nM
[3] = target: T1, monkey HER2-His protein (Sino …); experiment: ELISA, 1 nM
[4] = target: T1, monkey HER2-His protein (Sino …); experiment: ELISA, 0.1 nM
[5] = target: T1, monkey HER2-His protein (Sino …); experiment: ELISA, 0.0001 nM
[6] = target: T1, monkey HER2-His protein (Sino …); experiment: ELISA, 0.001 nM
[7] = target: T1, monkey HER2-His protein (Sino …); experiment: ELISA, 100 nM
[8] = target: T1, monkey HER2-His protein (Sino …); experiment: ELISA, 0.01 nM
monkey HER2-His protein = target: T2, monkey HER2-His protein (monkey); experiment: SPR, antibody captured on Protein A chip, monkey HER2-His analyte, 1:1 model
T2 construct: Bought protein; also called monkey HER2 protein

[9] = target: T3, recombinant human HER2-His protein (human, UniProt P04626 23-652, limits assumed); experiment: SPR, antibody captured on Protein A chip, human HER2-His analyte, 1:1 model
T3 construct: also called human HER2 protein; not shown: His tag
Experimental: The sample and running buffer were HBS-EP+ (10 mM HEPES, 150 mM NaCl, 3 mM EDTA, 0.05% surfactant P20) (GE Healthcare; BR-1006-69). The flow cell was set at 25° C. The sample block was set at 16° C. Both were pretreated with the running buffer. In each cycle, first, the antibody to be tested was captured using the Protein A chip, and then a single concentration of HER2 antigen protein was injected. The association and dissociation processes of the antibody with the antigen protein were recorded, and finally, the chip was regenerated using Glycine pH 1.5 (GE Healthcare; BR-1003-54). The association was determined by injecting different concentrations of recombinant human HER2-His in the solution and maintaining for 240 s, wherein the flow rate was 30 μL/min, and the protein was diluted in a 1:1 dilution ratio from 200 nM (see detailed results for actual concentrations tested) to obtain 5 concentrations in total. The dissociation phase was monitored for up to 600 s and triggered by switching from the sample solution to the running buffer. The surface was regenerated by washing with 10 mM glycine solution (pH 1.5) at a flow rate of 30 μL/min for 30 s. The difference in bulk refractive index was corrected by subtracting the responses obtained from the goat anti-human Fc surface. Blank injections were also subtracted (=double referencing). To calculate the apparent KD and other kinetic parameters, the Langmuir 1:1 model was used.

Binder	OD450 [1]	OD450 [2]	OD450 [3]	OD450 [4]	OD450 [5]	OD450 [6]	OD450 [7]	OD450 [8]	Kd (monkey HER2-His protein)	koff (monkey HER2-His protein)	kon (monkey HER2-His protein)	Kd [9]	koff [9]	kon [9]
B1	2.04	0.05	2.24	1.83	0.05	0.11	2.35	0.52						
B2									0.617 nM	0.000118 s⁻¹	191000 M⁻¹ s⁻¹	0.337 nM	7.45e-05 s⁻¹	221000 M⁻¹ s⁻¹
B3	2.15	0.05	2.04	1.11	0.06	0.06	2.42							
